Measurements reported in US20230093399A1, “METHODS FOR GENERATING PLURIPOTENT STEM CELL-DERIVED BROWN FAT CELLS” (AgeX Therapeutics, Inc., priority 2013, published 2023).

What was measured:
cell line E72 = test: Differentiation of cell line E72 in HyStem, gene expression; assay type: cell-based, human
Experimental: (§1) HyStem-C (BioTime, Inc. Alameda, Calif.) (BioTime, Alameda, Calif., USA) was reconstituted following the manufacturer's instructions. Briefly, the HyStem component (thiol modified hyaluronan, 10 mg) was dissolved in 1.0 ml degassed deionized water for about 20 minutes to prepare a 1% w/v solution. The Gelin-S component (thiol modified gelatin, 10 mg) was dissolved in 1 ml degassed deionized water to prepare a 1% w/v solution, and PEGDA (PEG diacrylate, 10 mg) was dissolved in 0.5 ml degassed deionized water to prepare a 2% w/v solution. HyStem (1 ml, 1% w/v) was mixed with Gelin-S (1 ml, 1% w/v) immediately before use. Pelleted cells were resuspended in recently prepared HyStem:Gelin-S (1:1 v/v) mix described above. Upon the addition of crosslinker PEGDA, the cell suspension, at a final concentration of 2.0×10^7 cells/ml, was aliquoted at 25 μl aliquot four to five times into each well of 6 well plates (Corning 3516) after partial gelation to form attached beads. Following complete gelation (20 minutes), chondrogenic medium was added to each well (i.e about 4 ml/each well of a 6 well plate). […]
The Gelin-S® component (10 mg of thiol-modified gelatin (BioTime)) is dissolved in 1.0 ml of degassed deionized water to prepare a 1% w/v solution, and polyethylene glycol diacrylate (10 mg of PEGDA) is dissolved in 0.5 ml of degassed deionized water to prepare a 2% w/v solution. […] At the desired time point, hydrogel constructs were either fixed and processed for immunohistochemical analysis or lysed using RLT (Qiagen, CA, USA) with 1% beta-mercaptoethanol for total RNA to analyze transcript expression using quantitative real-time PCR (qRT-PCR) and/or whole-genome microarray.
Total RNA was extracted directly from cells growing in 6-well plates or 10 cm tissue culture dishes using Qiagen RNeasy mini kits according to the manufacturer's instructions. RNA concentrations were measured using a Beckman DU530 or Nanodrop spectrophotometer and RNA quality was determined by denaturing agarose gel electrophoresis or using an Agilent 2100 bioanalyzer. […] The cRNA was hybridized to Illumina BeadChips, processed, and read using a BeadStation array reader according to the manufacturer's instructions (Illumina, San Diego, Calif., USA).

cell line E163 = test: Differentiation of cell line E163 in HyStem, gene expression; assay type: cell-based, human; details: E163 passage 12; 21 days in HyStem with 10 ng/mL BMP4
Experimental: as §1

B1: BMP4: Bone Morphogenetic Protein 4, TGF-beta superfamily member (protein, UniProt P12644 293-408, looked up)
Bone morphogenetic protein 4: SPKHHSQRARKKNKNCRRHSLYVDFSDVGWNDWIVAPPGYQAFYCHGDCPFPLADHLNSTNHAIVQTLVNSVNSSIPKACCVPTELSAISMLYLDEYDKVVLKNYQEMVVEGCGCR
Q: For B1, which “markers normally associated with enamel, enamelin (ENAM) and amelogenin (AMELX)” value (cell line E72; E72, HyStem in the presence of BMP4 and TGFβ3) is on record?
A: expressed the markers normally associated with enamel

Q: And the “markers of endochondral ossification including COL2A1, ALPL, IBSP, and osteopontin (SPP1)” value (cell line E72; E72 passage 11, 21 days in HyStem with 10 ng/mL TGFβ3 together with BMP4 (10 ng/mL) or BMP2 (50 ng/mL))?
A: relatively high levels

Q: And the “adipocyte markers FABP4 and CD36” value (cell line E72; E72 passage 12, 21 days in HyStem with 10 ng/mL BMP4)?
A: relatively high levels

Q: And the “adipocyte markers FABP4 and CD36 and candidate BAT cell progenitor markers such as C19orf80” value (cell line E163)?
A: relatively high levels
